Data from the RNAGym collection of RNA variant scans (doi:10.1073/pnas.2313332121).

B1: TPR t1 (parent)
chain: GACCAAUCUGCCCUCAGAGCUCGAGAACAUCUUCGGAUGCAGAGGAGGCAGGCUUCGGUGGCGCGAUAGCGCCAACGUCCUCAACCUCCAAUGCAUCCCACCACAUGAUGAUGCCUGAAGAGCCUUGGUUUUUUG

Variants of: B1
Experiment: polymerase ribozyme fitness, log enrichment relative to wild type (log ratio); higher = more active; in vitro selection for triplet polymerase activity
Method in brief: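 One round of in vitro selection, in triplicate, was applied to PCR-built, transcribed mutant libraries of each subunit of a heterodimeric triplet polymerase ribozyme. The steps were annealing with a biotinylated primer, partner subunit and triplets, incubation frozen at −7 °C, gel excision of extended constructs, streptavidin-bead capture and RT-PCR. Fitness is the logarithm, base 2, of genotype enrichment over wild-type enrichment from inverse-variance-weighted replicate averages of Illumina-sequenced inputs and outputs, keeping genotypes with ≥10 input reads and ≥1 read per output.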

Variant | polymerase ribozyme fitness (log ratio)
GACCAAUCUGCCCUCAGAGCUCGAGAACAUCUUCGGAUGCAGAGGAGACAGGCUUCGGUGGCGCGAUGGCGCCAACGUCCUCAACCUCCAAUGCAUCCCACCACAUGAUGAUGCCUGAAGAGCCUUGGUUUUUUG | -2.51
GACCAAUCUGCCCUCAGAGCUCGAGAACAUCUUCGGAUGCAGAGGAUGCAGGCUACGGUGGCGCGAUAGAGCCAACGUCCUCAACCUCCAAUGGAUCCCACCACAUGAUGAUGCCUGAAGAGCCUUGGUUUUUUG | -4.15
GACCAAUCUGCCCUCAGAGCUCGAGAACAUCUUCGGAUGCAGAGGAGACAGGCUUUGGCGGCGCGAUAGCGCCAACGUCCUCAACAUCCAAUGAAUCCCACCACAUGAUGCUGCCUGAAGAGCCUUGGUUUUUUG | -5.39
GACCAAUCUGCCCUCAGAGCUCGAGAACAUCUUCGGAUGCAGAGGAGACAGGCUUCGGUGGCGCGAUAGCGCCAACGUCCUCAACCUCCAAUGCUUCCCACCACAUGAUGAUGCCUGAAGAGCCUUGGUUUUUUG | -1.28
GACCAAUCUGCCCUCAGAGCUCGAGAACAUCUUCGGAUGCAGAGGAUGCAGGCUUCGGUGGCGCGAUAGCGCCAACGCCCUCAACCUCCAAUGCAUCCCACCACAUGAUGUUGCCUGAAGAGCCUUGGUUUUUUG | -4.07
GACCAAUCUGCCCUCAGAGCUCGAGAACAUCUUCGGAUGCAGAGGAUGCAGGCUUCGGUGGCGCGAUAGCGCCAACGUCCUCAACCUCCAAUGCAUCCCACCACACGAUGAUGCCUGAAGAGCCUUGGUUUUUUG | -1.89
GACCAAUCUGCCCUCAGAGCUCGAGAACAUCUUCGGAUGCAGAGGAGACAGGGUCAGGUGGCGCGAUAGCGCCAACGUCCUCAACCUCCAAUGCAUCCCACCACAUGAUGAUGCCUGAAGAGCCUUGGUUUUUUG | -0.815
GACCAAUCUGCCCUCAGAGCUCGAGAACAUCUUCGGAUGCAGAGGAGACAGGCUUCGGUGGCGCGAUAGCGCCAACGUCCUCACCUGCCAAUGCAUCCCACCACAUGAUGAUGCCUAAAGAGCCUUGUUUUUUUG | -6.08
GACCAAUCUGCCCUCAGAGCUCGAGAACAUCUUCGGAUGCAGAGGAGAUAGGCUUAGGUGGCGCGAUAGCGCCAACGUCCUCAACCUCCAAUGCAUCCCUCCACAUGAUGAUGCCUGAAGAGCCUUGGUUUUUUG | -2.11
GACCAAUCUGCCCUCAGAGCUCGAGAACAUCUUCGGAUGCAGAGGAGACAGGCUUCGGUGGCGCGAUAGCGCCAACGUCCUCAACCUCCAAUGCAUCCCACCACAUGAUGCUGCCUGAAGAGCCUUGGUUUUUUG | -0.446
GACCAAUCUGCCCUCAGAGCUCGAGAACAUCUUCGGAUGCAGAGGAGACAGGCUUCGGUGGCGCGAUAGCGCCAACGUCCUCAACCUCCAAUGCAUCCCACCACAUGAUGGUGCCUGAAGAGCCUUGGUUUUUUG | -0.578
GACCAAUCUGCCCUCAGAGCUCGAGAACAUCUUCGGAUGCAGAGGAGACCGGCUUCGGUGGCGCGAUAGCGCCAACGACCUCAACCUCCAAUGCAUCCCACCACAUGAUGAUGCCUGAGCAGCCUUGGUUUUUUG | 0.118
GACCAAUCUGCCCUCAGAGCUCGAGAACAUCUUCGGAUGCAGAGGAGACAGGCUUCGGUGGCGCGAUAGCGCCAACGUCCUCAACCUCCAAUGCGUCCCACCACAUGAUGAUGCCUGAAGAGCCUUGGUUUAUUG | -1.21
GACCAAUCUGCCCUCAGAGCUCGAGAACAUCUUCGGAUGCAGAGGAGACAGGCUUCGGUGGCGCGUUAGCGCCAACGUCCUCAACCUCCAAUGCAUCCCACCACAUGAUGAUGCCUGAAGAGCCUUGGUUUUUUG | -2.3
GACCAAUCUGCCCUCAGAGCUCGAGAACAUCUUCGGAUGCAGAGGAGACCGGCUUCGGUGGCGCGAUAGCGCCAACGUCCUCAGCCUCCAAUGCAUCCCACCACAUGAUGAUGCCUGAAGAGCCUUGGUUUUUUG | -0.336
GACCAAUCUGCCCUCAGAGCUCGAGAACAUCUUCGGAUGCAGAGGAGACAGGCUUGGGUGGCGCGAUAGCGCCAACGUCCUCAACCUCCAAUUCAUCCCACCACAUGAUGAUGCCUGAAGAGCCUUGGUUUUUUG | -2.28
GACCAAUCUGCCCUCAGAGCUCGAGAACAUCUUCGGAUGCAGAGGAUGCAGGCUUCGGUGGCGCGAUAGCGCCAACGUCCUCAACCGCCAAUGCAUCCCACCACAUGAUGAUGCCUGAAAAGCCUUGGUUUUUUG | -1.99
GACCAAUCUGCCCUCAGAGCUCGAGAACAUCUUCGGAUGCAGAGGAGACAGGCUUCGGUGGCGCGAUAGCGCCAACGUCCUCACCCUCCAAUGCAUCCCACCACAUGAUGAUGCCUGAAGAGCCUUGGUUUUUUG | -0.643
GACCAAUCUGCCCUCAGAGCUCGAGAACAUCUUCGGAUGCAGAGGAGACAGGCUUCGGUGGCGCGAUAGCGCCAACGUCCUCAGCCUCCAAUGCAUCCCACCACAUGAUGAUGCCUGAAGAGCCUUGGUUUUUUG | -0.314
GACCAAUCUGCCCUCAGAGCUCGAGAACAUCUUCGGAUGCAGAGGAUGCAGGCUUCGGUGGCGCGAUAGCGCCAACGUCCUCAACCUCCAAUGCAUCCCACCACAUGAUGAAGCCUGAAGAGCCUUGGUUUUUUG | 0.352
GACCAAUCUGCCCUCAGAGCUCGAGAACAUCUUCGGAUGCAGAGGAUGCAGGCUUCGGUGGCGCGAUAGCGCCAACGUCCUCAACCUCCAAUGCAUCCCACCACAUGAUGACGCCUGAAGAGCCUUGGUUUUUUG | -0.538

Variant | polymerase ribozyme fitness (log ratio)
GACCAAUCUGCCCUCAGAGCUCGAGAACAUCUUCGGAUGCAGAGGAUGCAGGCUUCGGUGGCGCGAUAGCGCCAACGUCCACAACCUCCAAUGCAUCCCACCACAUGAUGAUGCCUGAAGAGCCUUGGUUUUUUG | -3.01
GACCAAUCUGCCCUCAGAGCUCGAGAACAUCUUCGGAUGCAGAGGAGACAGGCUUAGGUGGCGCGAUAGCGCCAACGUCCUCAACCUCCAAUGCAUCCCACCACAUGAUGAUUCCUGAAGAGCCUUGGUUUUUUG | -4.64
GACCAAUCUGCCCUCAGAGCUCGAGAACAUCUUCGGAUGCAGAGGAUGCAGGCUACGGUGGCGCGAUAGUGCCAACGUCCUCAACCUCCAAUGGAUCCCACCACAUGAUGAUGCCUGAAGAGCCUUGGUUUUUUG | -4.62
GACCAAUCUGCCCUCAGAGCUCGAGAACAUCUUCGGAUGCAGAGGAUGCAGGCUCCGGUGGCGCGAUAGCGCCAACGUCCUCAACCUCCAAUGCAUCCCAGCACAUGAUGAUGCCUGAAGAGCCUUGGUUUUUUG | -2.84
GACCAAUCUGCCCUCAGAGCUCGAGAACAUCUUCGGAUGCAGAGGAUGCAGGCUUCGGUGGCGCGAUAGCGCCAACGUCCUCAACCUCCAAAGCAUCCCACCACAUGAUGAUGCCUGAAGAGCCUUGGUUUUUUG | -5.48
GACCAAUCUGCCCUCAGAGCUCGAGAACAUCUUCGGAUGCAGAGGAUGCAGGCGUCGGUGGCGCGAUAGCGCCAACGUCCUCAACCUCCAAUGCAUCCCACCAUAUGAUGAUGCCUGAAGAGCCUUGGUUUUUUG | -1.47
GACCAAUCUGCCCUCAGAGCUCGAGAACAUCUUCGGAUGCAGAGGAUGCAGGCUUCGGUGGCGCGAUAGCGCCAACGUCCUCAACCUCCAAUGCAUCCCACCACAUGAUGAUGCCUGAAGAGCCUUGGUGUUUUG | -2.4
GACCAAUCUGCCCUCAGAGCUCGAGAACAUCUUCGGAUGCAGAGGAGACAGGCUUCGGUGGCGCGAUAGCGCCAACGUCCUCAACCUCCAAUGCAUCCCUUCACAUGAUGAUGCCUAAAGAGACUUGGUUUUUUG | -3.72
GACCAAUCUGCCCUCAGAGCUCGAGAACAUCUUCGGAUGCAGAGGAGACAGGCUUCGGUGGCGCGAUAGCGCCAACGUCCUCAACCUCCAAUGCAUCCCACCGCAUGAUUAUGCCUGAAGAGCCUUGGUUUUUUG | -6.26
GACCAAUCUGCCCUCAGAGCUCGAGAACAUCUUCGGAUGCAGAGGAUGCAGGCUUCGGCGGCGCGAUAGCGCCAACGUCCUCAACCUCCAAUGCAUUCCACCACAUGAUCAUGCCUGAAGGGCCUCGGUUUUUUG | -6.2
GACCAAUCUGCCCUCAGAGCUCGAGAACAUCUUCGGAUGCAGAGGAGAUAGGAUUCGGUGGCGCGAUAGCGCCAACGUCCUCAACCUCCAAUGCAUCCCACCACAUGAUGUUGCCUGAAGAGCCUUGGUUUUUUG | -3.28
GACCAAUCUGCCCUCAGAGCUCGAGAACAUCUUCGGAUGCAGAGGAUGCAGGCUUCGGUGGCGCGAUAGCGCCAACGGCCUCAACCUCCAAUGCAACCCACCACAUGAUGAUGCCUGAAGAGCCUUGGUUUUUUG | -1.79
GACCAAUCUGCCCUCAGAGCUCGAGAACAUCUUCGGAUGCAGAGGAGACAGGCUUCGGUGGCGCGAUAGCGCCAACGUCCUCAACCUCCAAUGCGUCCCACCACAUGAUGAUGCCGGAAGAGCCUUGGUUUUUUG | -1.38
GACCAAUCUGCCCUCAGAGCUCGAGAACAUCUUCGGAUGCAGAGGAUGCAGGCUUCGGUGGCGCGAUAGCGCCAACGUCCUCAACCUCCAAUGCAUCCCACCACAUGAUGAUGCCAGAAGAGCCUUGGUUUUUUG | -3.64
GACCAAUCUGCCCUCAGAGCUCGAGAACAUCUUCGGAUGCAGAGGAGAGAUGCUUCGGUGGCGCGAUAGCGCCAACGUCCUCAACCUCCAAUGAAUCCCACCACAUGAUGUUGCCUGAAGAGCCUUGGUUUUUUG | -6.59
GACCAAUCUGCCCUCAGAGCUCGAGAACAUCUUCGGAUGCAGAGGAUGCAGGCUGCGGUGGCGCGAUAGCGCCAACGUCCUCAACCUCCAAUGCAUCCCACCACAUGAUGAUGCCGGAAGAGCCUUGGUUUUUUG | -3.9
GACCAAUCUGCCCUCAGAGCUCGAGAACAUCUUCGGAUGCAGAGGAGACAGGCUUCGGUGGCGCGAUAGCGCCAUCGUGCUCAACCUCCUAUGCCUCCCACCACAUGAUGAUGCCUGAAAAGCCUUGGGUUUUUG | -6.14
GACCAAUCUGCCCUCAGAGCUCGAGAACAUCUUCGGAUGCAGAGGAGACAGGCUUAGGUGGCGCGAUAGCGCCAACGUCCUCAACCUCCAAUGCAUCCCACCACAUGAUGAUGCCUGAAGAGCCUUGGUUUUUUG | -1.1
GACCAAUCUGCCCUCAGAGCUCGAGAACAUCUUCGGAUGCAGAGGAUGCAGGCUUCGGUGGCGCGAUAGCGCCAACGUCCUCAACCUCCAAUGCAUCCCACCACAUGAUGAUGCCGGAAGAGCUUUGGUUUUUUG | -2.14
GACCAAUCUGCCCUCAGAGCUCGAGAACAUCUUCGGAUGCAGAGGAGACAGGGUCCGGUGGCGCGAUAACGCCAACGUCCUCAACCUCCAAUGCAUCCCACCACAUGAUGAUGCCUGAAGAGCCUUGGUUUUUUG | -2.78
GACCAAUCUGCCCUCAGAGCUCGAGAACAUCUUCGGAUGCAGAGGAUGCAGGCUUCGGCGGCGCGAUAGCGCCAACGUCCUCAACCUCCAAUGCAUCCCAUCACAUGAUGAUGCCUGAAGAGCCGCGGUUUUUUG | -3.12
